How the values were obtained:
[1] = molecular target: Soc-SpyCatcher displayed on the T4 phage capsid (T4-SpyCatcher phage) (bacteriophage T4); assay: co-sedimentation; sequential co-display on T4-SpyCatcher phage: HA-stem trimers added first, incubated, then S-ecto trimers at 1:1; 4 °C, PBS pH 7.4; SDS-PAGE quantification
[2] = molecular target: Soc-SpyCatcher displayed on the T4 phage capsid (T4-SpyCatcher phage) (bacteriophage T4); assay: co-sedimentation; T4-SpyCatcher phage incubated with SpyTagged S-ecto or HA-stem trimers alone at increasing ratios of trimer to Soc binding sites, 4 °C, 1-2 h, PBS pH 7.4; sedimented at 34 000 g, pellets washed twice, SDS-PAGE and band quantification; covalent SpyCatcher-SpyTag conjugation
[3] = molecular target: Soc-SpyCatcher displayed on the T4 phage capsid (T4-SpyCatcher phage) (bacteriophage T4); assay: co-sedimentation; sequential co-display on T4-SpyCatcher phage: S-ecto trimers added first at a 0.25:1 ratio, incubated, then HA-stem trimers added at a 1:1 ratio; 4 °C, PBS pH 7.4; SDS-PAGE quantification

Q: With “Prefusion-stabilized SARS-CoV-2 spike ectodomain trimer with C-terminal SpyTag (from UniProt P0DTC2 14-1208) (domain or fragment)” as the substance, how does the copies per capsid (copies per capsid) [1] read?
A: 35

Q: And the copies per capsid (copies per capsid) [2]?
A: 118

Q: And the copies per capsid (copies per capsid) [3]?
A: 56
